The record followed here is publication PMC5929992 (Science signaling, 2016).

Changes are numbered by the printed parent chain. In names and notes the source's numbering stands. Non-standard residues stand in square brackets, D forms with d. No end group written: not given here. pY = N[C@@H](Cc1ccc(OP(=O)(O)O)cc1)C(=O)O

The term Kd denotes the concentration at which binding is half-saturated. Low values mean tighter binding, high ones weaker binding.

Common to all, as to test: SPR
Test [1] deals with Biotinylated CD28CD 25-mer peptide (residues 194 to 218) phosphorylated at Tyr207 (mouse).
Test [2] addresses Lck SH2 domain (residues 122 to 226) (mouse, UniProt P06240 122-226).
Test [3] deals with Murine full-length Lck (amino acid residues 6 to 509) (mouse, UniProt P06240 6-509, phosphotyrosine at 505).
Sequence of Murine full-length Lck (amino acid residues 6 to 509) (P06240 6-509): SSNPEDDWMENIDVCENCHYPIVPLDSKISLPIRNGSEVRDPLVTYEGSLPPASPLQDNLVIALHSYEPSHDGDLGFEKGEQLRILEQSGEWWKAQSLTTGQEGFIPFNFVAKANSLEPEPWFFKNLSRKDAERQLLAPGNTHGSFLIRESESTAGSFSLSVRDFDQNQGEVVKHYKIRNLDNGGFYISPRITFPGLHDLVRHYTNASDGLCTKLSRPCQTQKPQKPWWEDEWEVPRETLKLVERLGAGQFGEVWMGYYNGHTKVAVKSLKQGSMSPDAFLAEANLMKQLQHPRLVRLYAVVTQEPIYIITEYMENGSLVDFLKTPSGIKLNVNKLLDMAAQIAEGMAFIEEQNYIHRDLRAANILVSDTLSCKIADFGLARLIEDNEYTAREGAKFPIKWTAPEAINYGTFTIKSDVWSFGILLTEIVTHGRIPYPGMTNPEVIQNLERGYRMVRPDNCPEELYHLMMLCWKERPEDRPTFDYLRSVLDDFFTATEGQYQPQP

Sequence of Lck SH2 domain (residues 122 to 226) (P06240 122-226): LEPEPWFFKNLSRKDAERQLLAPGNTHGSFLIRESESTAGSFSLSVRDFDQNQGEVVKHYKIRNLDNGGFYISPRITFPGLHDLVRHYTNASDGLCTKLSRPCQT

“Lck SH2 domain (residues 122 to 226) (from UniProt P06240 122-226) (domain or fragment)” showed a Kd in test [1] of 10 µM.

On to PRRPGLTRKPYQA[pY]AAARDFAAYRP (peptide, UniProt P31041 194-218, looked up, also: biotinylated, position not given here) [Biotinylated CD28CD 25-mer peptide phosphorylated at Tyr207, double mutant P206A/P209A], for which the affinity in test [2], expressed as Kd, was 63.7 µM.

B1: CD28WT cytoplasmic domain (CD28CD), disulfide-linked dimer (domain or fragment, mouse)
chain: CNSRRNRLLQSDYMNMTPRRPGLTRKPYQPYAPARDFAAYRP
modifications: disulfide between the added N-terminal cysteines of the two chains (oxidized with 1 mM GSSG)
B1 yielded a Kd in test [3] of 0.199 µM.

B2: CD28 Mut5 cytoplasmic domain, disulfide-linked dimer (domain or fragment, mouse)
chain: B1 chain with P30A, P33A
modifications: disulfide between the added N-terminal cysteines of the two chains (oxidized with 1 mM GSSG)
In turn, B2 registered a dissociation constant (Kd) in test [3] of 0.187 µM.
